The results in this text go back to US20230094162A1.

For assay [1], the target named is CD137 expressed on the cell surface (CHO/CD137 cells) (UniProt Q07011). Briefly: flow cytometry (FACS) on CHO cells expressing CD137, MFI. (In general: A flow cytometer gives signals particle by particle.)
The target is the same in assay [2]. Briefly: cell-based or functional assay.
For assay [3] the target is unchanged. The experiment in a line: flow cytometry on CHO/CD137 cells (Surface Binding).
Assay [4] addresses PD-L1 expressed on the cell surface (CHO/PD-L1 cells) (UniProt Q9NZQ7).
Assay [5] shares this target. The experiment in a line: flow cytometry (FACS) on CHO cells expressing PD-L1, MFI.

Where two headings read alike, the source gives them in different places.

Sequence of CD137 expressed on the cell surface (CHO/CD137 cells) (Q07011 24-255 limits assumed): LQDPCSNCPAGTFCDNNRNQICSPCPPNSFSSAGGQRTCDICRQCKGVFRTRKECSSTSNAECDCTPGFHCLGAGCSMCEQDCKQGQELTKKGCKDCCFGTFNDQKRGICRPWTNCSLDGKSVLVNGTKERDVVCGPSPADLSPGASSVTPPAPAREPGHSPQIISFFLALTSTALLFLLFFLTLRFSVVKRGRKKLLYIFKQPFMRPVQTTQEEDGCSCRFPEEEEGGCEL
Sequence of PD-L1 expressed on the cell surface (CHO/PD-L1 cells) (Q9NZQ7 19-290): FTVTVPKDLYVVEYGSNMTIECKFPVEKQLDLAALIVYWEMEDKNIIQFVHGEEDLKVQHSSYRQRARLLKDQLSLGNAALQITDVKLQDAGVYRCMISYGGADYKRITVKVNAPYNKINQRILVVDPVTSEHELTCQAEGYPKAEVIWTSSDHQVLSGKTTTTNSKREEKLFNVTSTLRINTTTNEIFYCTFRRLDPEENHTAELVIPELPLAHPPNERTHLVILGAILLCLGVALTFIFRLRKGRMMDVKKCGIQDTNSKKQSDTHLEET

One may read the EC50 (read off the curve) as the concentration that produces a half-maximal response. Low values mean greater potency, high ones weaker potency. In assay [1], “replica of the agonistic anti-CD137 mAb urelumab (r-urelumab) (antibody)” had an EC50 (read off the curve) of 0.06 µg/mL.

In assay [2], non-specific mAb (antibody) yielded a Reporter Assay (RLU), 0.08 µg/mL of 1250 RLU; a Reporter Assay (RLU), IgG conc 0.02 µg/mL of 1020 RLU; a Reporter Assay (RLU), IgG conc 0.1 µg/mL of 1240 RLU. For the same substance, the MFI max in assay [3] was found to be 149 MFI.

Turning to “replica of the anti-PD-L1 antibody atezolizumab (r-atezolizumab)”, the concentration for a half-maximal effect (EC50 (read off the curve)) in assay [4] was 0.3 µg/mL; in assay [5], 0.01 µg/mL.
